Data reported in patent US12065471B2, “B*44 restricted peptides for use in immunotherapy against cancers and related methods” (Immatics Biotechnologies GmbH, priority 2018, dated 2024).

Biological target: HLA-B*44:05 (Homo sapiens, UniProt P01889, A223V/A65T/A93T/A95T/D201E/D98Y/E176V/E187L/E204Q/E69K/G107R/H137Y/K202T/L105A/L119I/N104T/N87E/Q56L/Q94N/R106L/R155S/R180D/S101N/S121R/S35A/S48T/T118I/V36M/W191S/Y91S)
Assay: MHC binding assay (UV-ligand exchange, β2m ELISA, peptide exchange yield)
Conditions: binding to HLA-B*44:05
Procedure, shortened: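 Binding is read as exchange yield, i.e. stabilized complex remaining after UV cleavage of a photolabile ligand in the presence of the candidate peptide. Streptavidin-captured monomers (100-fold dilution) are probed with HRP-anti-β2m, 1h at 37° C, TMB, A450. Standard curve: HLA-A*02:01/MLA-001 monomers at 15-500 ng/ml.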

Substance | Peptide exchange (MHC class I binding score, peptide exchange yield)
122 (GESVSWHLF; listed as Homo sapiens) [compound 122] | +++ (>50 = +++)
430 (RELARVVTL; listed as Homo sapiens) [compound 430] | ++++ (>75% = ++++)
224 (TETDIDREY; listed as Homo sapiens) [compound 224] | ++ (>20% = ++)
161 (GESSEVKAVL; listed as Homo sapiens) [compound 161] | +++ (>50 = +++)
337 (VEVIPEGAML; listed as Homo sapiens) [compound 337] | +++ (>50 = +++)
151 (TELQIPSF; listed as Homo sapiens) [compound 151] | ++ (>20% = ++)
145 (EELRMLSF; listed as Homo sapiens) [compound 145] | ++ (>20% = ++)
134 (IEIKDRLQL; listed as Homo sapiens) [compound 134] | +++ (>50 = +++)
424 (EEHVYESIIRW; listed as Homo sapiens) [compound 424] | +++ (>50 = +++)
380 (EECGKAFRVF; listed as Homo sapiens) [compound 380] | +++ (>50 = +++)
239 (DEDYTYLIL; listed as Homo sapiens) [compound 239] | ++ (>20% = ++)
197 (NEILTIHF; listed as Homo sapiens) [compound 197] | ++ (>20% = ++)
353 (AETEEGIYW; listed as Homo sapiens) [compound 353] | ++++ (>75% = ++++)
435 (FETEQALRL; listed as Homo sapiens) [compound 435] | +++ (>50 = +++)
256 (RLLPGKVVW; listed as Homo sapiens) [compound 256] | ++ (>20% = ++)
437 (HEDPSGSLHL; listed as Homo sapiens) [compound 437] | +++ (>50 = +++)
144 (IEAYLERIGY; listed as Homo sapiens) [compound 144] | +++ (>50 = +++)
143 (HEIIIRSHW; listed as Homo sapiens) [compound 143] | +++ (>50 = +++)
308 (EEPKIDFRVY; listed as Homo sapiens) [compound 308] | +++ (>50 = +++)
323 (SETAVVNVTY; listed as Homo sapiens) [compound 323] | ++++ (>75% = ++++)
222 (SEDTIHTHL; listed as Homo sapiens) [compound 222] | +++ (>50 = +++)
199 (AELPENLKALF; listed as Homo sapiens) [compound 199] | +++ (>50 = +++)
85 (SEIDEKVTDL; listed as Homo sapiens) [compound 85] | +++ (>50 = +++)

Substance | Peptide exchange (MHC class I binding score, peptide exchange yield)
242 (CDAQIQYSY; listed as Homo sapiens) [compound 242] | +++ (>50 = +++)
271 (REDLVGPEV; listed as Homo sapiens) [compound 271] | +++ (>50 = +++)
313 (EEINQGGRKY; listed as Homo sapiens) [compound 313] | +++ (>50 = +++)
280 (AAEPLVGQRW; listed as Homo sapiens) [compound 280] | ++ (>20% = ++)
10 (SEYPTKNYV; listed as Homo sapiens) [compound 10] | ++ (>20% = ++)
117 (SEVPVDSHY; listed as Homo sapiens) [compound 117] | +++ (>50 = +++)
243 (VEQINISQDW; listed as Homo sapiens) [compound 243] | ++++ (>75% = ++++)
304 (RELGFTEATGW; listed as Homo sapiens) [compound 304] | ++++ (>75% = ++++)
205 (MEIEGAGNFL; listed as Homo sapiens) [compound 205] | ++++ (>75% = ++++)
403 (QESVHVASY; listed as Homo sapiens) [compound 403] | ++++ (>75% = ++++)
180 (EEHSSKLQTSL; listed as Homo sapiens) [compound 180] | ++++ (>75% = ++++)
34 (AEPPILYSEY; listed as Homo sapiens) [compound 34] | ++ (>20% = ++)
203 (REILHAQTL; listed as Homo sapiens) [compound 203] | +++ (>50 = +++)
87 (GEARGDQVDW; listed as Homo sapiens) [compound 87] | ++++ (>75% = ++++)
120 (VTEGAVEVKY; listed as Homo sapiens) [compound 120] | + (>10% = +)
358 (TEFHGGLHY; listed as Homo sapiens) [compound 358] | +++ (>50 = +++)
159 (EEVQDGKVI; listed as Homo sapiens) [compound 159] | ++ (>20% = ++)
286 (DELSVGRY; listed as Homo sapiens) [compound 286] | ++ (>20% = ++)
93 (SEAGLTANQY; listed as Homo sapiens) [compound 93] | +++ (>50 = +++)
414 (AEGYLDLDGI; listed as Homo sapiens) [compound 414] | ++ (>20% = ++)
428 (AEEKAAVTSL; listed as Homo sapiens) [compound 428] | +++ (>50 = +++)
260 (VELMFPLLL; listed as Homo sapiens) [compound 260] | +++ (>50 = +++)
398 (AEIIRYIF; listed as Homo sapiens) [compound 398] | + (>10% = +)
